Laboratory results taken from article PMC2889927.

Target: lactosylceramide-loaded recombinant human CD1d complex (human) (UniProt P15813)
Assay: SPR

Sequence of recombinant soluble iNKT TCR 4C1369 (Vα24/Vβ11 heterodimer) (A0A0B4J240 whole entry, looked up, tested part not stated, one chain of several): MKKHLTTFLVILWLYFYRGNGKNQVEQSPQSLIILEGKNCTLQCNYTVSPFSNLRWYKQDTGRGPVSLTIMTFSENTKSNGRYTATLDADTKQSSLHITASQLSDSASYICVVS
Sequence of lactosylceramide-loaded recombinant human CD1d complex (human) (P15813 20-335, one chain of several): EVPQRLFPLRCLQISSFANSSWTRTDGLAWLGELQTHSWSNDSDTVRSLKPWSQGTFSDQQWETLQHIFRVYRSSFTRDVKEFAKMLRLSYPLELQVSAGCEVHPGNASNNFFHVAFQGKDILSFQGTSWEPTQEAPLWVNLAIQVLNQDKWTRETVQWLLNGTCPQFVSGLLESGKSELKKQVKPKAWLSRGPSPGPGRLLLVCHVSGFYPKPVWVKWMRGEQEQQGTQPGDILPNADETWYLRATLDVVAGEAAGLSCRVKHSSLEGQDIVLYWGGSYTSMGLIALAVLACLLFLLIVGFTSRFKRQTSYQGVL

recombinant soluble iNKT TCR 4C1369 (Vα24/Vβ11 heterodimer) (from UniProt A0A0B4J240)
Kd: 2030 nM
